Results published in patent US20030194391A1 (published 2003).

T1: human type-2 IL-4 receptor expressed by the human lung fibroblast cell line A549 (human, UniProt P24394 26-825; P78552 22-427)
T1 sequence (looked up) 1: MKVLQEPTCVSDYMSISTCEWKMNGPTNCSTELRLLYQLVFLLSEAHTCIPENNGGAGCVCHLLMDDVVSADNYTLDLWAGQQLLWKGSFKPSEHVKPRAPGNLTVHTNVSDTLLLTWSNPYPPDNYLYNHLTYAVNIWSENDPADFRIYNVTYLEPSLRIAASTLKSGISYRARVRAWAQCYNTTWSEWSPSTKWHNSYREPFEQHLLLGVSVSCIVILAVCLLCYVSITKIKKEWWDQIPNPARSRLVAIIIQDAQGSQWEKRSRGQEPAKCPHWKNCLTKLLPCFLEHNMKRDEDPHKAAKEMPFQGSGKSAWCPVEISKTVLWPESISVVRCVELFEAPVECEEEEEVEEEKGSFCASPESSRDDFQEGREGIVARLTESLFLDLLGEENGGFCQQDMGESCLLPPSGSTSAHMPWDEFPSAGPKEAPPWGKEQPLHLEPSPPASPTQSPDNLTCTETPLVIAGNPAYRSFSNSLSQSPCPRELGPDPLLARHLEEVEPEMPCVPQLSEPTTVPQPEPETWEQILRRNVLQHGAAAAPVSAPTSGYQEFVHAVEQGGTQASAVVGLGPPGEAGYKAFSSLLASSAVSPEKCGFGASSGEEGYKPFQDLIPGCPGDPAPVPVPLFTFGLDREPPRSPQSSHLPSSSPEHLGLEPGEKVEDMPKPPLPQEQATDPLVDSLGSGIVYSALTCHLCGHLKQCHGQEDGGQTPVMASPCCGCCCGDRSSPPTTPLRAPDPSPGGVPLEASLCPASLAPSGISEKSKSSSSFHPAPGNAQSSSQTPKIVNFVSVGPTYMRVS
T1 sequence (looked up) 2: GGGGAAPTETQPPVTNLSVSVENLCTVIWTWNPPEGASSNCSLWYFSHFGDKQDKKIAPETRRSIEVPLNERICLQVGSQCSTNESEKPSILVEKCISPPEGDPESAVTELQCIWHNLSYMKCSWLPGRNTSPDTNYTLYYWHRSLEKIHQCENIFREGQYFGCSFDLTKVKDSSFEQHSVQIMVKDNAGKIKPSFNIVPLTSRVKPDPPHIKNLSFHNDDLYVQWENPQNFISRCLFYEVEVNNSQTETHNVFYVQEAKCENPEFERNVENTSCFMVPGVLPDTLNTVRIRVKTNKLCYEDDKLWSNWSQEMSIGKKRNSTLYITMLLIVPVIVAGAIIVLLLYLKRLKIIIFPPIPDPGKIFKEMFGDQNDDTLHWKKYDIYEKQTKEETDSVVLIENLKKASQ

T2: mIL-13R2-Fc (catalogue number 539-IR-100, R+D Systems) (mouse, UniProt O88786 22-334)
T2 construct: Bought; also called mIL-13Rα2; mouse IL-13 receptor; not shown: Fc part; captured on plates with anti-human IgG
T2 sequence (looked up): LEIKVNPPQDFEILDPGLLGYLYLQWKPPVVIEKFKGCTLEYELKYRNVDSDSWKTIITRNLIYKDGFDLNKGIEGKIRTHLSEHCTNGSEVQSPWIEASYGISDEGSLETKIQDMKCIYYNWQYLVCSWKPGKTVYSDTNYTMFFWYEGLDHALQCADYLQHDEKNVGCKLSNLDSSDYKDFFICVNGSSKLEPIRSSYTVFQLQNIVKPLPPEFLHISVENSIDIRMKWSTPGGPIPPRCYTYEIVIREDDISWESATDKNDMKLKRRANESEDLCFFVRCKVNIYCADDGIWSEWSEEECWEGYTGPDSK

T3: mIL-13R1-Fc (catalogue number 491-IR-200, R+D Systems) (mouse, UniProt O09030 26-340)
T3 construct: Bought; also called mIL-13Rα1; mouse IL-13 receptor; not shown: Fc part; captured on plates with anti-human IgG
T3 sequence (looked up): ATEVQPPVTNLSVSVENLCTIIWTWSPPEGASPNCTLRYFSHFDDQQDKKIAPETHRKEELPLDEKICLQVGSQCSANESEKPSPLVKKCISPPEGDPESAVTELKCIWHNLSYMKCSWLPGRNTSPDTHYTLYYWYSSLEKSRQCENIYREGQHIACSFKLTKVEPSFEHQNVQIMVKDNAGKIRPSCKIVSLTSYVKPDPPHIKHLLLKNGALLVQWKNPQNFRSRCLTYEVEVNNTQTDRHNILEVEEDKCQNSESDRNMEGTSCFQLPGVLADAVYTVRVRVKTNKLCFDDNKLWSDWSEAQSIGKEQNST


Tests used:
[1] = biological target: T1, human type-2 IL-4 receptor expressed by …; experiment: cell-based or functional assay
[2] = biological target: T2, mIL-13R2-Fc (catalogue number …); experiment: ELISA, receptor-Fc captured on anti-human IgG, detection with biotinylated anti-mIL-13
Procedure: (§1) ELISAs were set up to determine whether cIL-13 could bind to either of the known mouse IL-13 receptors (mIL-13R1 or mIL-13R2). 96-well Maxisorp plates were coated with anti-human IgG (catalogue number I-3382, Sigma Aldrich) in carbonate-bicarbonate buffer overnight at 4° C. Plates were then blocked with 3% BSA/TBST for 1 hour at RT, washed 3 times in TBST, and incubated with mIL-13R1-Fc or mIL-13R2-Fc (catalogue numbers 491-IR-200 and 539-IR-100 respectively, R+D Systems) for 1 hour at RT. After washing, plates were incubated with dilutions of mIL-13 or cIL-13 or GST-cIL-13 for 1 hour at RT, washed again and incubated with biotinylated anti-mIL-13 (catalogue number BAF413, R+D Systems). Following further washing and incubation with streptavidin conjugated horse-radish peroxidase, the plates were developed with 0-phenylenediamine dihydrochloride peroxidase substrate for 30 minutes.

[3] = biological target: T3, mIL-13R1-Fc (catalogue number …); experiment: as above
Procedure: as §1

fold decrease in bioactivity against mIL-13 (STAT6 phosphorylation in A549 cells) [1]	binding result [2]	binding result [3]	Binder
~5 fold	binds	binds	chimaeric IL-13 (free cIL-13 generated from GST-cIL-13 by thrombin cleavage) (ligand, also called mouse chimaeric IL-13 vaccine construct) GPVPRSVSLPLTLRELIEELVNITQDQTPLCNGSMVWSVDLAAGGYCAALESLTNISNCNAIEKTQRMLGGLCNRKAPTTVSSLPDTKIEVAQFVKDLLSYTKQLFRHGPF
	binds	binds	GST-cIL-13 (genetic fusion protein of glutathione-S-transferase and chimaeric IL-13) (other, Expressed in E. coli BLR from pGEX4T3-cIL-13; also called GST-cIL-3; not shown: glutathione-S-transferase as encoded by vector pGEX4T3 (Amersham Pharmacia); short spacer which contains the recognition site for thrombin) GPVPRSVSLPLTLRELIEELVNITQDQTPLCNGSMVWSVDLAAGGYCAALESLTNISNCNAIEKTQRMLGGLCNRKAPTTVSSLPDTKIEVAQFVKDLLSYTKQLFRHGPF
